Experimental findings from article PMC3781060 are described below.

In experiment [1] the target is low-density lipoprotein (LDL) receptor-related protein-1 (LRP1) (rat (endogenous in PC12 cells and primary DRG neurons)) (UniProt G3V928).
Experiment [2] shares this target. The source holds these as a separate data set.

Sequence of UniProt G3V928 (G3V928 20-4545): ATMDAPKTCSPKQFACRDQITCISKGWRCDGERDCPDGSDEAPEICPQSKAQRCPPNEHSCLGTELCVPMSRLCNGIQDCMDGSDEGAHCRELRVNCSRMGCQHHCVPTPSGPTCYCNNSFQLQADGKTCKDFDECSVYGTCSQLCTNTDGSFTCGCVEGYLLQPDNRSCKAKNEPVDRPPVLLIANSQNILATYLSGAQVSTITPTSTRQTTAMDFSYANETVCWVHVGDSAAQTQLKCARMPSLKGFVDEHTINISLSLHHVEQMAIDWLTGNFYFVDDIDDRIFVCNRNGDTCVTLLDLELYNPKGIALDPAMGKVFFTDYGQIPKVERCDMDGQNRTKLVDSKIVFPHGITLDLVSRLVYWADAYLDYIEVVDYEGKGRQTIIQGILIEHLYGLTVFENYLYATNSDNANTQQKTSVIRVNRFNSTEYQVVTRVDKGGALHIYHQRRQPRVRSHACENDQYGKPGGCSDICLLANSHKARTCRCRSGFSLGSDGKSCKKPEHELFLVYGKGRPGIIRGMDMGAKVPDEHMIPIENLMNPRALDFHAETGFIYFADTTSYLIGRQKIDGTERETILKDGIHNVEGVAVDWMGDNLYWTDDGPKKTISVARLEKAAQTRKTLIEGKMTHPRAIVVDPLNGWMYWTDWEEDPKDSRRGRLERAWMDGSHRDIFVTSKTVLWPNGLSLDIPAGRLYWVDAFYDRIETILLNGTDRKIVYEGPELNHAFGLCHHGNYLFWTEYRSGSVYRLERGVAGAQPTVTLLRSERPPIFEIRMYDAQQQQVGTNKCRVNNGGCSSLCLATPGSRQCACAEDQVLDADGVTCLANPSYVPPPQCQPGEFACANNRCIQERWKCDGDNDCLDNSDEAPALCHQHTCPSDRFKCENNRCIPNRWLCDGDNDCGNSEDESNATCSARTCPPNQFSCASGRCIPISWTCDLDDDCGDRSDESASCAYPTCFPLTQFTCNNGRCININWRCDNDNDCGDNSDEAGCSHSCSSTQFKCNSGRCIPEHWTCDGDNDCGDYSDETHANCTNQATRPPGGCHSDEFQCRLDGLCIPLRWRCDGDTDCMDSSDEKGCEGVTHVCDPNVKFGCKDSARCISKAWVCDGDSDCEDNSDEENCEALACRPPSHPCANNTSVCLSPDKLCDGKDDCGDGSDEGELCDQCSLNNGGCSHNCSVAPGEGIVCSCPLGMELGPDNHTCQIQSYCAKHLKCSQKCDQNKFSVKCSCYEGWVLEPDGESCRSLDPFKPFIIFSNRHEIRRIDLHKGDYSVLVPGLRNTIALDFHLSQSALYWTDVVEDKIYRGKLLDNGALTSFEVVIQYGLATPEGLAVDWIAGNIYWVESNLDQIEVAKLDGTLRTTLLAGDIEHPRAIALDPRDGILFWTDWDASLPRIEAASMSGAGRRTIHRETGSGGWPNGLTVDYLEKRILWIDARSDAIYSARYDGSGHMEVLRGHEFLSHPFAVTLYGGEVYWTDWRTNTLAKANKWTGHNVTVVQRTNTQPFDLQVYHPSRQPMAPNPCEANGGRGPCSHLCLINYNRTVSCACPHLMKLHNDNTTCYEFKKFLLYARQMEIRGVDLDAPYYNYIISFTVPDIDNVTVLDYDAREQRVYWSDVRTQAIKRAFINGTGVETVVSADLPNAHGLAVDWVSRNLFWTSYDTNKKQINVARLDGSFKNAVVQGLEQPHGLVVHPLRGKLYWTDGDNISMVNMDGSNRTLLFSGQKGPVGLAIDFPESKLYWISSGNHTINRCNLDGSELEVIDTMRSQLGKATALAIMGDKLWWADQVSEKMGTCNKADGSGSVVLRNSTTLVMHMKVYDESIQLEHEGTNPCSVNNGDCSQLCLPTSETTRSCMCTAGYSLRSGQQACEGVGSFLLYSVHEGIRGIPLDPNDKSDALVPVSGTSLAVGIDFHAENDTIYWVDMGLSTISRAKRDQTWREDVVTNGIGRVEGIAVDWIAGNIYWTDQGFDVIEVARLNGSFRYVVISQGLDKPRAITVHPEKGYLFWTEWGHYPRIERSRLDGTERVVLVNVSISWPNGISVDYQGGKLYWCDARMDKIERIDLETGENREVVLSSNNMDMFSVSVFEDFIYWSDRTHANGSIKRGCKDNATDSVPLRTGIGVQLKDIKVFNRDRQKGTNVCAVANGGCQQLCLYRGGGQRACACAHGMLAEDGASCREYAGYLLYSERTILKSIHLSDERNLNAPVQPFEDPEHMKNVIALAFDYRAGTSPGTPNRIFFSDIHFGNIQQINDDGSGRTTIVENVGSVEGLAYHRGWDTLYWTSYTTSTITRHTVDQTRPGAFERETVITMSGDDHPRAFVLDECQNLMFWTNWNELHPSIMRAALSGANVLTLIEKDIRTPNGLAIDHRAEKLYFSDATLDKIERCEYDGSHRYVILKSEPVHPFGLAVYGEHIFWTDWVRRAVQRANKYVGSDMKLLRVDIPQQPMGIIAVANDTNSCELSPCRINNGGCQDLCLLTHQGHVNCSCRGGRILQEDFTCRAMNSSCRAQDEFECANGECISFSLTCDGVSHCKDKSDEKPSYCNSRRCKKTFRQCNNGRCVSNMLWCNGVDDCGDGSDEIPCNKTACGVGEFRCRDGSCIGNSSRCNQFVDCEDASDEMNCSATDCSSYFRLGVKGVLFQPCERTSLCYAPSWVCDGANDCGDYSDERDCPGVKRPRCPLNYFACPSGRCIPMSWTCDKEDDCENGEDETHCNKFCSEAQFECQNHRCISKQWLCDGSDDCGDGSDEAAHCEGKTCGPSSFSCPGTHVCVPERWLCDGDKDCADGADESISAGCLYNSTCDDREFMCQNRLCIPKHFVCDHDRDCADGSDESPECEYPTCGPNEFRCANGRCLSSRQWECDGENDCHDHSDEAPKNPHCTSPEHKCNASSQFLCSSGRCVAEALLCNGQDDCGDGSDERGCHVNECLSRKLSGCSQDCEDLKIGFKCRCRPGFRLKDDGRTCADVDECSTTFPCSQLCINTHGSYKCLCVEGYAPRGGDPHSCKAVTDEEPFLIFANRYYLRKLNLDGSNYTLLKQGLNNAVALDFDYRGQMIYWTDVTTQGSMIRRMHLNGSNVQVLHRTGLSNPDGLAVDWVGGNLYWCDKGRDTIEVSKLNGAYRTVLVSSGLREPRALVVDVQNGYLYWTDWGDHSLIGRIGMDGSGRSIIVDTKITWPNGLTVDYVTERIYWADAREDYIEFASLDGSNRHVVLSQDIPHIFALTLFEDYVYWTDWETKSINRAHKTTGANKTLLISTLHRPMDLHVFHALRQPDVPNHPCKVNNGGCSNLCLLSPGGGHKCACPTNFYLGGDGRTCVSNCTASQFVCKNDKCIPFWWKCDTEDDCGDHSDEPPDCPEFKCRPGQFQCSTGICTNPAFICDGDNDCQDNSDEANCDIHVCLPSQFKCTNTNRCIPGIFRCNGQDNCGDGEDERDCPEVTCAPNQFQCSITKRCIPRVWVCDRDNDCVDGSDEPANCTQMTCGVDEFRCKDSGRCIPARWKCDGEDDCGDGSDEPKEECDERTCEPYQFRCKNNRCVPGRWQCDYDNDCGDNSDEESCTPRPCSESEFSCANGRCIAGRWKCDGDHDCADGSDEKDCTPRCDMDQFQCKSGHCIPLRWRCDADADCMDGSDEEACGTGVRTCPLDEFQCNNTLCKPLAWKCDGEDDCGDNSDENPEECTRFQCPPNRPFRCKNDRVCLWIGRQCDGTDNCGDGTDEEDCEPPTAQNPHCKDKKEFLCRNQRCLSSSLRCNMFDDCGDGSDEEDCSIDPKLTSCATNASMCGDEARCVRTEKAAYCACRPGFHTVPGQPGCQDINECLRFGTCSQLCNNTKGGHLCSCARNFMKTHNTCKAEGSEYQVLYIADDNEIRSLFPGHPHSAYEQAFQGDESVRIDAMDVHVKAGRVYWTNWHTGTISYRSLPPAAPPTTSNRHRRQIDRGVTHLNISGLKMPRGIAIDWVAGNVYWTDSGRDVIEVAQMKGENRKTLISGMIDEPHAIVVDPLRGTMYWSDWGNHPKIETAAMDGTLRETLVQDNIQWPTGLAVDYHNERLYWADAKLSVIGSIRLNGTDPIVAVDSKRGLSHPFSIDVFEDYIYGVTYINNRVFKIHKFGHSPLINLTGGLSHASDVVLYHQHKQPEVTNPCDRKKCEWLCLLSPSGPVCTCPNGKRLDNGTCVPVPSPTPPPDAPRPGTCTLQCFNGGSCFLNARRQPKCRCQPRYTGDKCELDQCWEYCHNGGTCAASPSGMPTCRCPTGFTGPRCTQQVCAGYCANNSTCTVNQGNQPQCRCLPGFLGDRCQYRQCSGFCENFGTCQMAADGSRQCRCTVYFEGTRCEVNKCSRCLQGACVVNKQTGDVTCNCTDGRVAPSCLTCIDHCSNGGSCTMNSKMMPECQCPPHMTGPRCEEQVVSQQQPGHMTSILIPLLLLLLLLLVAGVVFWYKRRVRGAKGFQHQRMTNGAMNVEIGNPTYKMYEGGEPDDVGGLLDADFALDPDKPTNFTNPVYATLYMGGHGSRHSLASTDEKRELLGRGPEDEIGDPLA

In experiment [1], “GST fusion protein of the hemopexin domain of matrix metalloprotease-9 (MMP-9-PEX) (domain or fragment)” gave a neurite outgrowth of primary embryonic sensory neurons cultured for 2 weeks with MMP-9-PEX (100 nM), quantified as GAP-43 mRNA compared to GST of 15 fold.

B1: GST fusion protein of the Receptor Binding Domain of α2-macroglobulin (RBD) (domain or fragment)
chain: GAATFTRTGKAAQVTIQSSGTFSSKFQVDNNNRLLLQQVSLPELPGEYSMKVTGEGCVYLQTSLKYNILPEKEEFPFALGVQTLPQTCDEPKAHTSFQISLSVSYTGSRSASNMAIVDVKMVSGFIPLKPTVKMLERSNHVSRTEVSSNHVLIYLDKVSNQTLSLFFTVLQDVPVRDLKPAIVKVYDYYETDEFAIAEYNAPCSKDLGNA
As for B1, the neurite outgrowth of primary embryonic sensory neurons cultured for 2 weeks with RBD, compared to GST controls in experiment [2] was more than 40 fold.
